B1: SC04-361 (scFv)
scFv: EVQLVQSGAEVKKPGESLKISCKASGFSFSTYWIGWVRQMPGKGLEWMGIIYPADSDTRYSPSFQGQVTISADKSISTAYLQWSSLKASDTAMYYCARLRGPYYDFWNGYRETHDAFNVWGQGTMVTVSSGTGGSGGTGSGTGGSTDVVMTQSPDSLAVSLGERATINCKSSQNILDNSDNKNFLAWYQQKPGQPPKLLIYWASARESGVPDRFSGSGSGTDFTLTISSLQAEDVALYYCQQYYNTPITFGQGTRLEIKR
B2: SC04-353 (scFv)
scFv: EVQLVQSGGGVVQPGRSLRLSCAASGFTFSNYAMHWVRQAPGKGLEWVAVISYDGGNKYYADSVKGRFTMSRDNSKNTLYLQMNSLRAEDTAVYYCARDFWSGYSMVDSYYYYMDVWGKGTTVTVSSGTGGSGGTGSGTGGSTETTLTQSPGTLSLSPGERATLSCRASQSVSNTFLAWYQQKPGQAPRLLIYGASSRATGIPDRFSGSGSGTDFTLTISRLEPEDFAAYYCQQYGSSLTFGPGTKVDIKR
B3: SC04-374 (scFv)
scFv: QVTLKESGPTLVKPTQTLTLTCTFSGFSLSTSGVGVGWIRQPPGKALEWLAVIYWNDDKLYRPSLKSRLTITKDTSKNQVVLTMTKMDPVDTATYYCAHRHRYYDISGYYRLFSDAFDIWGQGTMVTVSSGTGGSGGTGSGTGGSTQSVVTQPPSVSGAPGQRVTISCTGSSSNIGAGYDVHWYQQLPGTAPKLLIYGNSNRPSGVPDRFSGSKSGTSASLAITGLQAEDEADYYCQSYDSSLSGSVFGGGTKLTVLG

These binders were tested against whole inactivated rabies virus (rabies virus) (assay: phage ELISA on coated whole inactivated rabies virus).

Row | Binder | OD 492 nm [OD]
1 | B1 | 0.059
2 | B2 | 0.057
3 | B3 | 0.056

From patent publication US7537764
